Measured values from patent publication US20160152684A1.

Key:
[1] = target: FcRn, FCGRT & B2M dimer receptor (Sino Biological Inc.); experiment: SPR, FcRn on CM5 chip, 50 nM analyte, RU 2 s before end of pH 6.0 injection
[2] = target: FcRn, FCGRT & B2M dimer receptor (Sino Biological Inc.); experiment: SPR, FcRn on CM5 chip, 50 nM analyte, RU 10 s after start of dissociation at pH 7.4
[3] = target: FcRn, FCGRT & B2M dimer receptor (Sino Biological Inc.); experiment: SPR, FcRn on CM5 chip, 12.5 nM analyte, RU 10 s after start of dissociation at pH 7.4
[4] = target: FcRn, FCGRT & B2M dimer receptor (Sino Biological Inc.); experiment: SPR, FcRn on CM5 chip, 100 nM analyte, RU 2 s before end of pH 6.0 injection
[5] = target: FcRn, FCGRT & B2M dimer receptor (Sino Biological Inc.); experiment: SPR (BIACORE 3000), FcRn on CM5 chip, pH 6.0, 1:1 Langmuir with drifting baseline
[6] = target: FcRn, FCGRT & B2M dimer receptor (Sino Biological Inc.); experiment: SPR, 25 nM analyte, (RU at pH 7.4 / RU at pH 6.0) x 100
[7] = target: FcRn, FCGRT & B2M dimer receptor (Sino Biological Inc.); experiment: SPR, 50 nM analyte, (RU at pH 7.4 / RU at pH 6.0) x 100
[8] = target: FcRn, FCGRT & B2M dimer receptor (Sino Biological Inc.); experiment: SPR, 100 nM analyte, (RU at pH 7.4 / RU at pH 6.0) x 100
[9] = target: FcRn, FCGRT & B2M dimer receptor (Sino Biological Inc.); experiment: SPR, FcRn on CM5 chip, 25 nM analyte, RU 2 s before end of pH 6.0 injection
[10] = target: FcRn, FCGRT & B2M dimer receptor (Sino Biological Inc.); experiment: SPR, FcRn on CM5 chip, 100 nM analyte, RU 10 s after start of dissociation at pH 7.4
[11] = target: FcRn, FCGRT & B2M dimer receptor (Sino Biological Inc.); experiment: SPR, 12.5 nM analyte, (RU at pH 7.4 / RU at pH 6.0) x 100
[12] = target: FcRn, FCGRT & B2M dimer receptor (Sino Biological Inc.); experiment: SPR, mean over 100-12.5 nM analyte, (RU at pH 7.4 / RU at pH 6.0) x 100
[13] = target: FcRn, FCGRT & B2M dimer receptor (Sino Biological Inc.); experiment: SPR, FcRn on CM5 chip, 12.5 nM analyte, RU 2 s before end of pH 6.0 injection
[14] = target: FcRn, FCGRT & B2M dimer receptor (Sino Biological Inc.); experiment: SPR, FcRn on CM5 chip, 25 nM analyte, RU 10 s after start of dissociation at pH 7.4

Chain of Human growth hormone-immunoglobulin Fc fragment conjugate (P01241 27-217): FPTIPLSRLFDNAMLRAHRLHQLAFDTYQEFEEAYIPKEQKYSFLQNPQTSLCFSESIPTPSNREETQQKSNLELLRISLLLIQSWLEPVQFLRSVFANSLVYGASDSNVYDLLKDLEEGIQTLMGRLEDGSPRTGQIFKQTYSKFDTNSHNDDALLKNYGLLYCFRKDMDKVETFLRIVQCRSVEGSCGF

Binding amount (RU) at pH 6.0 [1] [RU]	Binding amount (RU) at pH 7.4 [2] [RU]	Binding amount (RU) at pH 7.4 [3] [RU]	Binding amount (RU) at pH 6.0 [4] [RU]	Kd [5] [µM]	koff [5] [s⁻¹]	kon [5] [M⁻¹ s⁻¹]	Binding ratio (%) [6] [%]	Binding ratio (%) [7] [%]	Binding ratio (%) [8] [%]	Binding amount (RU) at pH 6.0 [9] [RU]	Binding amount (RU) at pH 7.4 [10] [RU]	Binding ratio (%) [11] [%]	Average binding ratio (%) [12] [%]	Binding amount (RU) at pH 6.0 [13] [RU]	Binding amount (RU) at pH 7.4 [14] [RU]	Substance
153	7.7	8.1	206	0.0268	0.0036	120000	7.4	5.1	4	112	8.2	9.8	6.6	82.9	8.3	Human growth hormone-immunoglobulin Fc fragment conjugate (from UniProt P01241 27-217)
157	6.7	6.4	197	0.03	0.0093	300000	5.6	4.3	3.2	120	6.4	7	5	91.3	6.7	Interferon-immunoglobulin Fc fragment conjugate (from UniProt P01563 24-188)
